One experiment deals with T1, PC5444.
T1 construct: Synthetic peptide of the exon 3 region with Ser where native CTGF has Cys
T1 peptide: PLSSMDVRLPSPDS
Briefly: ELISA with synthetic peptide. (An ELISA detects its analyte on a solid surface through an enzyme-linked reagent.)

In another experiment the target is T2, PC5445 (human).
T2 peptide: RLPSPDSPFPRRVKLPGK
Briefly: ELISA with synthetic peptide.

Another experiment deals with T3, PEP5 (human).
T3 peptide: RLPSPDCPFPRRVKL
Briefly: ELISA with synthetic peptide.

A further experiment addresses T4, P40340 (human).
T4 peptide: RLPSPDCPFPRRV
Briefly: ELISA with synthetic peptide.

The target in another experiment is T5, P40341.
T5 construct: Same as P40340 with Ser in place of the Cys
T5 peptide: RLPSPDSPFPRRV
The experiment is described as follows: ELISA with synthetic peptide.

Another experiment deals with T6, P40342 (human).
T6 peptide: LPSPDCPFPRRVKL
Briefly: ELISA with synthetic peptide.

The next experiment addresses T7, 10MER.
T7 peptide: SPDSPFPRRV
The experiment is described as follows: ELISA with synthetic peptide.

For another experiment, the target named is T8, 10MER2.
T8 peptide: SPDCPFPRRV
Briefly: ELISA with synthetic peptide.

A further experiment has as its target T9, 9MER.
T9 peptide: PDSPFPRRV
Briefly: ELISA with synthetic peptide.

Another experiment has as its target T10, 9MER2.
T10 peptide: CPFPRRVKL
The experiment is described as follows: ELISA with synthetic peptide.

The target in another experiment is T11, 8MER.
T11 peptide: DSPFPRRV
The experiment is described as follows: ELISA with synthetic peptide.

The next experiment deals with T12, 8MER2.
T12 peptide: CFPRRVKL
Briefly: ELISA with synthetic peptide.

The next experiment has as its target T13, 7MER.
T13 construct: The N-terminal C is probably the added, non-native cysteine (underlining lost in the text)
T13 peptide: CPRRVKL
Briefly: ELISA with synthetic peptide.

The next experiment has as its target T14, 6MER.
T14 construct: The N-terminal C is probably the added, non-native cysteine (underlining lost in the text)
T14 peptide: CRRVKL
The experiment is described as follows: ELISA with synthetic peptide.

The target in another experiment is T15, 5MER.
T15 construct: The N-terminal C is probably the added, non-native cysteine (underlining lost in the text)
T15 peptide: CRVKL
The experiment is described as follows: ELISA with synthetic peptide.

The target of experiment [1] is T16, recombinant human connective tissue growth factor (human, UniProt P29279 27-349).
T16 construct: Radio-iodinated in the RIA; also called rhCTGF; CTGF
T16 sequence: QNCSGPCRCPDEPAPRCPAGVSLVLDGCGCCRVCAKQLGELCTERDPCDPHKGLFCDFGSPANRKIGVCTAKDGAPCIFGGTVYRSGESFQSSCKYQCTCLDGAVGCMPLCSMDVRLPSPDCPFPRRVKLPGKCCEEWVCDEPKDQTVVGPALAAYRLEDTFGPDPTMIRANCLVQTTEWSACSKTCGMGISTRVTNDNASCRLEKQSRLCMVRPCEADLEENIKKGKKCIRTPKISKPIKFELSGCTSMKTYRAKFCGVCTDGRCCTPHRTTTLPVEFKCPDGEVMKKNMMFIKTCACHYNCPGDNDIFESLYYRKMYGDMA
Briefly: RIA, immobilized antibody, [125I]rhCTGF with unlabeled rhCTGF, Scatchard. As to the method: The affinity of each antibody population identified by epitope mapping was measured using RIA, wherein whole rhCTGF was radio-iodinated and added to wells containing immobilized monoclonal antibody, as follows. Recombinant human CTGF was radiolabeled with ¹²⁵I using the chloramine-T method. (See, Greenwood et al. (1963) Biochem J 89:114-123.) Typically, at least 60% of the ¹²⁵I was incorporated and the specific activity of the labeled CTGF was at least 1×10⁵ cpm/ng, although labeled CTGF of lower specific activity can be used in the radioimmunoassay. Goat anti-human IgG, γFc-specific capture antibody (Jackson ImmunoResearch) in Ca²⁺- and Mg²⁺-free DPBS (Mediatech, Herrndon Va.) was added to the wells of a MAXISORP BREAKAPART microtiter plate (Nalge Nunc International, Rochester N.Y.) and allowed to bind overnight at 4° C. The wells were then blocked with 1% BSA in Ca²⁺- and Mg²⁺-free DPBS for at least 4 hours at 4° C. […] Wells were then washed four times with 0.1% Tween 20 in Ca²⁺- and Mg²⁺-free PBS (Mediatech), and the wells of the microtiter plate were separated and counted in a gamma counter.
Affinity was estimated graphically by the method of Scatchard (1948, Ann NY Acad Sci 51:660-72). The total concentration of labeled CTGF applied to the plate was calculated as […]

Experiment [2] has as its target T17, recombinant human connective tissue growth factor (UniProt P29279 27-349).
T17 chain: T16 sequence
Briefly: Scatchard competitive binding; mAb 5 ng/ml.

Experiment [3] addresses T18, rat CTGF (rat, UniProt Q9R1E9 25-347).
T18 construct: also called unlabeled rat CTGF; recombinant rat CTGF
T18 sequence (looked up): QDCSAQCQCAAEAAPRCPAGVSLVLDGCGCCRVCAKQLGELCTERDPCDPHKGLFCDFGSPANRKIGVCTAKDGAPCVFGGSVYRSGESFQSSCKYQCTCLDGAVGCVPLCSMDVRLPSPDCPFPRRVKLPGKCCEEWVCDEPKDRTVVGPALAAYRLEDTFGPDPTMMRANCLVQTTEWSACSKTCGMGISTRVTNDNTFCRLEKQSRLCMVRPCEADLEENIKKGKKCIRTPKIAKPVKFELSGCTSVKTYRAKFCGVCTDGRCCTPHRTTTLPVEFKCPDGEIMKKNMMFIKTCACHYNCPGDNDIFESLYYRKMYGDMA
The experiment is described as follows: RIA, unlabeled rat CTGF competing with [125I]rhCTGF for immobilized antibody. The procedure: (§1) The affinity of each antibody population identified by epitope mapping was measured using RIA, wherein whole rhCTGF was radio-iodinated and added to wells containing immobilized monoclonal antibody, as follows. Recombinant human CTGF was radiolabeled with ¹²⁵I using the chloramine-T method. (See, Greenwood et al. (1963) Biochem J 89:114-123.) Typically, at least 60% of the ¹²⁵I was incorporated and the specific activity of the labeled CTGF was at least 1×10⁵ cpm/ng, although labeled CTGF of lower specific activity can be used in the radioimmunoassay. Goat anti-human IgG, γFc-specific capture antibody (Jackson ImmunoResearch) in Ca²⁺- and Mg²⁺-free DPBS (Mediatech, Herrndon Va.) was added to the wells of a MAXISORP BREAKAPART microtiter plate (Nalge Nunc International, Rochester N.Y.) and allowed to bind overnight at 4° C. The wells were then blocked with 1% BSA in Ca²⁺- and Mg²⁺-free DPBS for at least 4 hours at 4° C. The blocking solution was removed and 100 μl of test antibody at 2-50 ng/ml in Ca²⁺- and Mg²⁺-free DPBS was added and allowed to bind overnight at 4° C. […] Wells were then washed four times with 0.1% Tween 20 in Ca²⁺- and Mg²⁺-free PBS (Mediatech), and the wells of the microtiter plate were separated and counted in a gamma counter. […]

The target in experiment [4] is T17, recombinant human connective tissue …. The experiment is described as follows: Scatchard competitive binding; mAb 10 ng/ml.
The target is the same in experiment [5]. Briefly: Scatchard competitive binding; mAb 25 ng/ml.
For experiment [6] the target is unchanged. The experiment is described as follows: Scatchard competitive binding; mAb 2.5 ng/ml.
The target in experiment [7] is T19, rat CTGF (rat, UniProt Q9R1E9 25-347).
T19 chain: T18 sequence (looked up)
Briefly: Scatchard competitive binding; mAb 5 ng/ml; labeled human CTGF vs unlabeled rat CTGF.

For experiment [8], the target named is T19, rat CTGF. Briefly: Scatchard competitive binding; mAb 10 ng/ml; labeled human CTGF vs unlabeled rat CTGF.
Experiment [9] concerns the target T16, recombinant human connective tissue …. Briefly: not stated (assays as described in Example 4).
Experiment [10] shares this target. The experiment is described as follows: RIA as in Example 4.2. The procedure:
as §1

B1: mAb1 (antibody, V domains shown)
VH: EGQLVQSGGGLVHPGGSLRLSCAGSGFTFSSYGMHWVRQAPGKGLEWVSGIGTGGGTYSTDSVKGRFTISRDNAKNSLYLQMNSLRAEDMAVYYCARGDYYGSGSFFDCWGQGTLVTVSS
VL: DIQMTQSPSSLSASVGDRVTITCRASQGISSWLAWYQQKPEKAPKSLIYAASSLQSGVPSRFSGSGSGTDFTLTISSLQPEDFATYYCQQYNSYPPTFGQGTKLEIKR
notes: also called exemplary antibody of the invention; antibody of hybridoma cell line 8C12-F10
As a reminder, the Kd is a measure of binding affinity in units of concentration. B1: the binding result in the experiment with PC5444 is “no binding”; in the experiment with PC5445 it was “binds”; in the experiment with PEP5 it was “binds”; with P40340, “binds”; in the experiment with P40341 it was “no binding”; in the experiment with P40342, “binds”. Also, the binding result with 10MER, with 10MER2, with 9MER, with 9MER2, with 8MER and in the experiment with 8MER2 was “no binding” each time. In addition, the binding result is given as “no binding” in the experiment with 7MER, “no binding” with 6MER, “no binding” with 5MER and “binds” with rat CTGF [3]. Also, the Kd in experiment [1] is less than 1 nM; in [2], 0.239 nM; in experiment [4], 0.271 nM; in experiment [5] it was 0.384 nM; in experiment [6], 0.215 nM; in the experiment with rat CTGF [7], 0.317 nM. The molecule further showed a Kd with rat CTGF [8] of 0.339 nM.

B2: CLN1 (antibody, V domains shown)
VH: B1 VH
VL: B1 VL
notes: also called recombinant antibody from COS7 cells co-transfected with plasmids 44a1 and 42b2
For the molecule B2, the dissociation constant Kd in experiment [9] was 0.8 nM.

B3: deglycosylated mAb1 (antibody, V domains shown)
VH: B1 VH
VL: B1 VL
modifications: N-linked oligosaccharides removed with peptide N-glycosidase F (PNGase F)
notes: also called deglycosylated antibody; PNGase F treated mAb1
Turning to B3, the binding result in experiment [10] is given as “binds”.

For the origin of these results see patent US20040248206A1 (FIBROGEN, published 2004).
